Tests used:
[1] = molecular target: T1, hu-IL-36β (human IL-36β, N-terminally truncated active form R5-E157) (human); test: SPR (Biacore 8K), biotinylated IL-36 captured on CAP chip, Fab injected, 37°C
T1 construct: Purification tag cleaved off; Biotinylated where captured; also called hu-IL-36b
T1 chain: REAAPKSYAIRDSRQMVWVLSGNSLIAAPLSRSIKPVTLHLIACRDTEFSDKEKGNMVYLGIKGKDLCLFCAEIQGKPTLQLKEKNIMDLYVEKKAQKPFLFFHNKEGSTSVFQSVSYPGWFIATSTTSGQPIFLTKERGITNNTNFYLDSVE
Protocol: (§1) Briefly, a 1:4 dilution of Biotin CAPture Reagent (GE Healthcare, Chicago, Ill., USA)) into HBS-EP buffer (GE Healthcare, Chicago, Ill., USA; 0.01 M HEPES pH 7.4, 0.15 M NaCl, 3 mM EDTA, 0.005% Surfactant P20) was applied to a CAP sensor chip at 2 μL/min flow rate. […] FC1 was kept as a reference. […] The sensorgram was recorded and subject to reference and buffer subtraction before data analysis with the BIACORE® 8K Evaluation Software (GE Healthcare, Chicago, Ill., USA; version 1.1.1.7442). Association rates (kₒₙ) and dissociation rates (koff) were calculated using a simple one-to-one Langmuir binding model. The equilibrium dissociation constant (KD) was calculated as the ratio of koff/kₒₙ.

[2] = molecular target: T1, hu-IL-36β (human IL-36β, N-terminally …); test: SPR (Biacore 8K), biotinylated IL-36 captured on CAP chip, Fab injected, 25°C
Protocol: as §1

[3] = molecular target: T1, hu-IL-36β (human IL-36β, N-terminally …); test: ELISA, yeast Fab supernatant, anti-Fab-HRP
[4] = molecular target: T1, hu-IL-36β (human IL-36β, N-terminally …); test: cell-based or functional assay
[5] = molecular target: T2, hu-IL-36γ (human IL-36γ, N-terminally truncated active form S18-D169) (human, UniProt Q9NZH8 18-169); test: SPR (Biacore 8K), biotinylated hu-IL-36 captured on CAP chip, Fab injected, 37°C
T2 construct: Purification tag cleaved off; Biotinylated where captured; also called hu-IL-36g
T2 sequence: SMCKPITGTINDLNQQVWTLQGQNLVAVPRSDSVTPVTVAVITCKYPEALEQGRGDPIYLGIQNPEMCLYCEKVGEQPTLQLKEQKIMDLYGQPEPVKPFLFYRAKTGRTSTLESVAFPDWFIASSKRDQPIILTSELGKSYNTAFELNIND
Protocol: (§2) Briefly, a 1:4 dilution of Biotin CAPture Reagent (GE) into HBS-EP buffer (0.01 M HEPES pH 7.4, 0.15 M NaCl, 3 mM EDTA, 0.005% Surfactant P20) was applied to a CAP sensor chip at 2 uL/min flow rate. For kinetics measurements, 3 nM biotinylated human IL-36α and human IL-36γ was captured at 10 uL/min to achieve ˜50 response units in the second flow cell (FC2). FC1 was kept as a reference. […] The sensorgram was recorded and subject to reference and buffer subtraction before evaluating by BIACORE® 8K Evaluation Software (version 1.1.1.7442). Association rates (kₒₙ) and dissociation rates (koff) were calculated using a simple one-to-one Langmuir binding model.

[6] = molecular target: T3, hu-IL-36α (human IL-36α, N-terminally truncated active form K6-F158) (human, UniProt Q9UHA7 6-158); test: as above
T3 construct: Purification tag cleaved off; Biotinylated where captured (SPR, some ELISAs); also called hu-IL-36a
T3 sequence: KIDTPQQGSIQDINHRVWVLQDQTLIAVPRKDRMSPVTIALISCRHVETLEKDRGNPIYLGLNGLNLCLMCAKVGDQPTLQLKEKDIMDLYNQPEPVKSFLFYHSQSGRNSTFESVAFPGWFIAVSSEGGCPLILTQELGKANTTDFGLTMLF
Protocol: as §2

[7] = molecular target: T3, hu-IL-36α (human IL-36α, N-terminally …); test: phage competition ELISA: Fab on phage, soluble hu-IL-36α titrated against coated hu-IL-36α
Protocol: (§3) Selected phages with top binding signal were purified to perform phage competition ELISA. The optimal phage concentration was incubated with serially-diluted human IL-36α or human IL-36γ in ELISA buffer in NUNC F plate for two hours. 80 μL of the mixture was transferred to human IL-36α or human IL-36γ coated wells for 15 min to capture unbound phage. The plate was washed with wash buffer (0.05% TWEEN®20 in PBS), and HRP-conjugated anti-M13 antibody (Sino biological, Cat #11973-MM05-H-50) was added in ELISA buffer for 30 min. The plates were washed and developed as described above. The absorbance at 450 nm was plotted as a function of antigen concentration in solution to determine phage IC50.

[8] = molecular target: T2, hu-IL-36γ (human IL-36γ, N-terminally …); test: phage competition ELISA: Fab on phage, soluble hu-IL-36γ titrated against coated hu-IL-36γ
Protocol: as §3

[9] = molecular target: T2, hu-IL-36γ (human IL-36γ, N-terminally …); test: cell-based or functional assay
[10] = molecular target: T3, hu-IL-36α (human IL-36α, N-terminally …); test: cell-based or functional assay
[11] = molecular target: T2, hu-IL-36γ (human IL-36γ, N-terminally …); test: SPR (Biacore 8K), biotinylated IL-36 captured on CAP chip, Fab injected, 37°C
Protocol: as §1

[12] = molecular target: T3, hu-IL-36α (human IL-36α, N-terminally …); test: as above
Protocol: as §1

[13] = molecular target: T2, hu-IL-36γ (human IL-36γ, N-terminally …); test: SPR (Biacore 8K), biotinylated IL-36 captured on CAP chip, Fab injected, 25°C
Protocol: as §1

[14] = molecular target: T3, hu-IL-36α (human IL-36α, N-terminally …); test: as above
Protocol: as §1

B1: mAb6.0 Fab (purified, lysyl-C cleaved from recombinant IgG1) (Fab, V domains shown)
VH: QLQLQESGPGLVKPSETLSLTCTVSGGSITSSNYYWGWIRQPPGKGLEWIGSIDYTGSTYYNPSLKSRVTISVDTSKNQFSLKLSSVTAADTAVYYCARGKYYETYLGFDVWGQGTLVTVSS
VL: QSVLTQPPSVSGAPGQRVTISCTGSSSNIGAGYDVHWYQQLPGTAPKLLIYGNTNRPSGVPDRFSGSKSGTSASLAITGLQAEDEADYYCQSYDISLSGWVFGGGTKLTVL
notes: also called purified mAb6.0 Fab
B1 gave a Kd [1] of 1.93 nM, a koff [1] of 0.000118 s⁻¹ and a kon [1] of 61100 M⁻¹ s⁻¹. For the same binder, the Kd [2] was 1.79 nM, the koff [2] was 7.23e-05 s⁻¹ and the kon [2] was 40400 M⁻¹ s⁻¹.

B2: mAb8.0 Fab (yeast clone culture supernatant) (Fab, V domains shown)
VH: QVQLVQSGAEVKKPGSSVKVSCKASGGTFSNYAISWVRQAPGQGLEWMGGILPILGTVDYAQKFQGRVTITADESTSTAYMELSSLRSEDTAVYYCAREPWYRLGAFDVWGQGTLVTVSS
VL: DIQMTQSPSSLSASVGDRVTITCRASQTIYKYLNWYQQKPGKAPKLLIYAASSLQSGVPSRFSGSGSGTDFTLTISSLQPEDFATYYCQQYSSIPYTFGQGTKVEIK
notes: Human Fab secreted by the yeast clone, not purified
B2 was tested, and the “ELISA OD450” value [3] was 2.63 OD450 and the “% Inhibition, HEK-Blue IL-36R SEAP reporter assay” value [4] was 85%.

B3: mAb2 Fab (Fab, V domains shown)
VH: ELQLQESGPGLVKPSETLSLTCTVSGGSISTSSYYWGWIRQPPGKGLEWIGSIYYTGNTYYNPSLKSRVTISVDTSKNQFSLKLSSVTAADTAVYYCARVRYGVGVPRYFDPWGQGTLVTVSS
VL: ESVLTQPPSVSGAPGQRVTISCTGSSSNIGAHYDVHWYQQLPGTAPKLLIYGNDNRPSGVPDRFSGSKSGTSASLAITGLQAEDEADYYCQSYDYSLSGYVFGGGTKLTVL
With B3 the “apparent Kd (pooled screen)” value [5] was 0.41 nM, the “apparent koff (pooled screen)” value [5] was 0.000574 s⁻¹ and the “apparent kon (pooled screen)” value [5] was 1.39e+06 M⁻¹ s⁻¹. The “apparent Kd (pooled screen)” value [6] was 0.23 nM, the “apparent koff (pooled screen)” value [6] was 0.000264 s⁻¹ and the “apparent kon (pooled screen)” value [6] was 1.16e+06 M⁻¹ s⁻¹. For the same binder, the “apparent IC50 (pooled screen)” value [7] was 1.2 nM, the “apparent IC50 (pooled screen)” value [8] was 3.2 nM and the “IC50, IL-36-stimulated IL-8 secretion by HaCat cells” value (from here on “IC50 … by HaCat cells”) [9] was 0.96 nM. The “IC50 … by HaCat cells” value [10] was 0.3 nM.

B4: mAb2.0 Fab (purified, lysyl-C cleaved from recombinant IgG1) (Fab, V domains shown)
VH: QLQLQESGPGLVKPSETLSLTCTVSGGSISTSSYYWGWIRQPPGKGLEWIGSIYYTGNTYYNPSLKSRVTISVDTSKNQFSLKLSSVTAADTAVYYCARVRYGVGVPRYFDPWGQGTLVTVSS
VL: QSVLTQPPSVSGAPGQRVTISCTGSSSNIGAHYDVHWYQQLPGTAPKLLIYGNDNRPSGVPDRFSGSKSGTSASLAITGLQAEDEADYYCQSYDYSLSGYVFGGGTKLTVL
notes: also called purified mAb2.0 Fab
B4 gave a Kd [11] of 1.61 nM, a koff [11] of 0.00108 s⁻¹ and a kon [11] of 671000 M⁻¹ s⁻¹. For the same binder, the Kd [12] was 0.3 nM, the koff [12] was 0.000502 s⁻¹ and the kon [12] was 1.69e+06 M⁻¹ s⁻¹. For the same binder, the Kd [13] was 0.98 nM, the koff [13] was 0.000358 s⁻¹ and the kon [13] was 366000 M⁻¹ s⁻¹. It also gave a Kd [14] of 1.2 nM, a koff [14] of 0.000413 s⁻¹ and a kon [14] of 345000 M⁻¹ s⁻¹.

B5: mAb2.10 Fab (Fab, V domains shown)
VH: ELQLQESGPGLVKPSETLSLTCTVSGGSISDSSYYWGWIRQPPGKGLEWIGSIYYTGETYYAPSLKSRVTISVDTSKNQFSLKLSSVTAADTAVYYCARVRYGVGVPRHFDPWGQGTLVTVSS
VL: ESVLTQPPSVSGAPGQRVTISCTGSSSNIGAHYDVHWYQQLPGTAPKLLIYGNDNRPSGVPDRFSGSKSGTSASLAITGLQAEDEADYYCQSYDYSLSGYVFGGGTKLTVL
notes: Recombinant Fab with 8xHis tag (Expi293F)
Binder B5 has a Kd [5] of 0.13 nM, a koff [5] of 0.00018 s⁻¹ and a kon [5] of 1.37e+06 M⁻¹ s⁻¹. The Kd [6] was 0.15 nM, the koff [6] was 0.000222 s⁻¹ and the kon [6] was 1.49e+06 M⁻¹ s⁻¹. The “IC50 … by HaCat cells” value [9] was 1.09 nM and the “IC50 … by HaCat cells” value [10] was 0.38 nM.

B6: mAb2.11 Fab (Fab, V domains shown)
VH: ELQLQESGPGLVKPSETLSLTCTVSGGSISESSYYWGWIRQPPGKGLEWIGSIYYTGETYYAPSLKSRVTISVDTSKNQFSLKLSSVTAADTAVYYCARLRYGVGVPRYFDPWGQGTLVTVSS
VL: ESVLTQPPSVSGAPGQRVTISCTGSSSNIGAHYDVHWYQQLPGTAPKLLIYGNDNRPSGVPDRFSGSKSGTSASLAITGLQAEDEADYYCQSYDYSLSGYVFGGGTKLTVL
notes: as for B5
B6 showed a Kd [5] of 0.11 nM, a koff [5] of 0.000214 s⁻¹ and a kon [5] of 1.92e+06 M⁻¹ s⁻¹. For the same binder, the Kd [6] was 0.13 nM, the koff [6] was 0.000244 s⁻¹ and the kon [6] was 1.91e+06 M⁻¹ s⁻¹. The “IC50 … by HaCat cells” value [9] was 1.05 nM and the “IC50 … by HaCat cells” value [10] was 0.42 nM.
